Results: publication PMC7454256 (Antibody Therapeutics, 2020)

B1: ADI-15878 (antibody, V domains shown)
VH: QVQLVQSGVTLVQPGGSLRVSCAASGFTFSSYAMSWVRQAPGKGLEWVSAISGLGGSTYYADSVKGRFTISRDNSKNTLYLQMNSLRAEDTAVYYCAKDHRVWAAGYHFDYWGQGALVTVSS
VL: DIVLTQSPSTLSASVGDRVTITCRASQSISSWLAWYQQKPGEAPKLLISDASSLESGVPSRFSGSGSGTEFTLTISSLQPDDFATYYCQQYYSSPIFGGGTKVEIK
notes: also called PE-87; Control PE-87; source: supplied in purified form (Integrated Biotherapeutics)
B2: KZ52 (antibody, V domains shown)
VH: EVQLLESGGGLVKPGGSLRLSCAASGFTLINYRMNWVRQAPGKGLEWVSSISSSSSYIHYADSVKGRFTISRDNAENSLYLQMNSLRAEDTAVYYCVREGPRATGYSMADVFDIWGQGTMVTVSS
VL: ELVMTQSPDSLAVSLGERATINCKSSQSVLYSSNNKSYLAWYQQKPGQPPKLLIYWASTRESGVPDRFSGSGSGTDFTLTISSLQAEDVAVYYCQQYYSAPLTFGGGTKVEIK
notes: source: supplied in purified form (Integrated Biotherapeutics)
B3: mAb114 (antibody, V domains shown)
VH: EVQLVESGGGLIQPGGSLRLSCAASGFALRMYDMHWVRQTIDKRLEWVSAVGPSGDTYYADSVKGRFAVSRENAKNSLSLQMNSLTAGDTAIYYCVRSDRGVAGLFDSWGQGILVTVSS
VL: DIQMTQSPSSLSASVGDRITITCRASQAFDNYVAWYQQRPGKVPKLLISAASALHAGVPSRFSGSGSGTHFTLTISSLQPEDVATYYCQNYNSAPLTFGGGTKVEIK
notes: as for B2
B4: ADI-15946 (antibody, V domains shown)
VH: EVQLVESGGGLVKPGGSLRLSCAASGFTFSNAWMSWVRQAPGKGLEWVGRIKSKTDGGTIDYAAPVKGRFTISRDDSKNTVYLQMTSLKTEDTAVYYCTTYTEDMRYFDWLLRGGETFDYWGQGTLVTVSS
VL: DIRLTQSPSSLSASVGDRVTITCRASHYISTYLNWYQQKPGKAPKLLIYAASNLQSGVPSRFSGSGFGTDFSLTISSLQPEDFATYHCQQSYSTPGRYTFGQGTKVEIK
notes: also called PE-64
B5: CA45 (antibody, V domains shown)
VH: QVQLQEWGEGLVKPSETLSLTCAVYGGSISGYYHWNWIRLPPGKGLEWIGNIDGNSASTNYNPSLKTRVTISKDTSKNQISLKVRSLTAADTAVYYCARDPGFTIFGVVITSWSGLDSWGQGAVVTVSS
VL: DIQMTQSPSSLSASVGDTVTITCRASQSISNNLAWYQQRPRRAPQLLIYAASNLASGVPSRFSGSGSGTDFTLTISSLQAEDFAAYYCQQHNTLPLTFGGGTKVEIK
B6: mAb100 (antibody, V domains shown)
VH: QVQLQESGPGLVKPSDTLSLTCTVSGGSLSSFYWSWIRQPPGKGLEWIGYIYYSGSPNYSPSLESRVTMSVDTTRNQISLKLDSVTAADTAVYYCVRASRSYYWGSYRPTAFDSWGQGTLVTVSS
VL: YELTQPLSVSVSPGQTAIFTCSGDNLGDKYVCWFQQRPGQSPMLLIYQDNKRPSGIPERFSGSNSGNTATLTISGTQSTDEADYYCQTWDSTVVFGGGTKLTVL

Tests used:
[1] = biological target: T1, Ebola virus glycoprotein (EBOV GP), trimer of the GP1 + GP2 heterodimer lacking the transmembrane domain (Ebola virus, Mayinga strain, UniProt Q05320); assay: SPR; conditions: both partners purified
T1 construct: also called soluble Ebola virus glycoprotein; EBOV GP trimer complex of GP1 + GP2 heterodimer; source: Drosophila S2 cells; supplied by Integrated Biotherapeutics, purified
T1 sequence (Q05320 33-637, one chain of several): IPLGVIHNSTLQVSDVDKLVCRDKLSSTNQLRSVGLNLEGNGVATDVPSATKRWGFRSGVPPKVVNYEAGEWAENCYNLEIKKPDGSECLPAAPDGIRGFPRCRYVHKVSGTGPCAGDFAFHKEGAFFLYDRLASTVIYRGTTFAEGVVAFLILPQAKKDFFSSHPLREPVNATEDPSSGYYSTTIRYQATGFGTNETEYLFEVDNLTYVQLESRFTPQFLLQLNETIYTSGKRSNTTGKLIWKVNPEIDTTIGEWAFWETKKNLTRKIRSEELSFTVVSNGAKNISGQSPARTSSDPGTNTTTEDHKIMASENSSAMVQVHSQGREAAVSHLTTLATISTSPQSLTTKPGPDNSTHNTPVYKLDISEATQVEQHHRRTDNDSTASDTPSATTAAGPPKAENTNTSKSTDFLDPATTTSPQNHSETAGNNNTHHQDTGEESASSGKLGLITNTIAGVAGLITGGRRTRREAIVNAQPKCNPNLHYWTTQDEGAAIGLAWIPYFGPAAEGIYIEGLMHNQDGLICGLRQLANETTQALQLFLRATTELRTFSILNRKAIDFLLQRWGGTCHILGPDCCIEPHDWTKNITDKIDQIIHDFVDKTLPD

[2] = biological target: T2, Ebola virus glycoprotein (EBOV GP), trimer of the GP1 + GP2 heterodimer lacking the transmembrane domain (Ebola virus, Mayinga strain, UniProt Q05320); assay: SPR; conditions: both partners purified; remark: listed apart in the source
T2 construct: also called soluble Ebola virus glycoprotein; EBOV GP trimer complex of GP1 + GP2 heterodimer; source: Drosophila S2 cells; supplied by Integrated Biotherapeutics, purified
T2 sequence (Q05320 33-637, one chain of several): as above

| Binder | binding result [1] | binding result [2] |
| --- | --- | --- |
| B1 | binds |  |
| B2 | binds |  |
| B3 | binds |  |
| B4 |  | binds |
| B5 |  | binds |
| B6 |  | binds |
